The test deals with T1, filamin-A (human, UniProt P21333 2-2647).
T1 construct: whole, on cells; Endogenous filamin-A of human cell lines; No purified filamin-A was used; also called FLNA; FLNa
Kind of test: flow cytometry, surface staining of SKNAS (human neuroblastoma) cells, 2 µg primary antibody. How it is done: B411 surface staining on several different cell types was conducted. Cells were plated at a concentration of 0.5-1.0 million cells per well, and incubated overnight. Cells were then lifted from the wells, washed, and resuspended in flow cytometry media with 2 μg of primary antibody for 1 hour on ice. Cells were washed and incubated with the secondary antibody (5 μg/ml) for 30 minutes on ice. Cells were washed again and analyzed by flow cytometry.
On the technique in general: A flow cytometer gives signals particle by particle.

T1 sequence (P21333 2-2647): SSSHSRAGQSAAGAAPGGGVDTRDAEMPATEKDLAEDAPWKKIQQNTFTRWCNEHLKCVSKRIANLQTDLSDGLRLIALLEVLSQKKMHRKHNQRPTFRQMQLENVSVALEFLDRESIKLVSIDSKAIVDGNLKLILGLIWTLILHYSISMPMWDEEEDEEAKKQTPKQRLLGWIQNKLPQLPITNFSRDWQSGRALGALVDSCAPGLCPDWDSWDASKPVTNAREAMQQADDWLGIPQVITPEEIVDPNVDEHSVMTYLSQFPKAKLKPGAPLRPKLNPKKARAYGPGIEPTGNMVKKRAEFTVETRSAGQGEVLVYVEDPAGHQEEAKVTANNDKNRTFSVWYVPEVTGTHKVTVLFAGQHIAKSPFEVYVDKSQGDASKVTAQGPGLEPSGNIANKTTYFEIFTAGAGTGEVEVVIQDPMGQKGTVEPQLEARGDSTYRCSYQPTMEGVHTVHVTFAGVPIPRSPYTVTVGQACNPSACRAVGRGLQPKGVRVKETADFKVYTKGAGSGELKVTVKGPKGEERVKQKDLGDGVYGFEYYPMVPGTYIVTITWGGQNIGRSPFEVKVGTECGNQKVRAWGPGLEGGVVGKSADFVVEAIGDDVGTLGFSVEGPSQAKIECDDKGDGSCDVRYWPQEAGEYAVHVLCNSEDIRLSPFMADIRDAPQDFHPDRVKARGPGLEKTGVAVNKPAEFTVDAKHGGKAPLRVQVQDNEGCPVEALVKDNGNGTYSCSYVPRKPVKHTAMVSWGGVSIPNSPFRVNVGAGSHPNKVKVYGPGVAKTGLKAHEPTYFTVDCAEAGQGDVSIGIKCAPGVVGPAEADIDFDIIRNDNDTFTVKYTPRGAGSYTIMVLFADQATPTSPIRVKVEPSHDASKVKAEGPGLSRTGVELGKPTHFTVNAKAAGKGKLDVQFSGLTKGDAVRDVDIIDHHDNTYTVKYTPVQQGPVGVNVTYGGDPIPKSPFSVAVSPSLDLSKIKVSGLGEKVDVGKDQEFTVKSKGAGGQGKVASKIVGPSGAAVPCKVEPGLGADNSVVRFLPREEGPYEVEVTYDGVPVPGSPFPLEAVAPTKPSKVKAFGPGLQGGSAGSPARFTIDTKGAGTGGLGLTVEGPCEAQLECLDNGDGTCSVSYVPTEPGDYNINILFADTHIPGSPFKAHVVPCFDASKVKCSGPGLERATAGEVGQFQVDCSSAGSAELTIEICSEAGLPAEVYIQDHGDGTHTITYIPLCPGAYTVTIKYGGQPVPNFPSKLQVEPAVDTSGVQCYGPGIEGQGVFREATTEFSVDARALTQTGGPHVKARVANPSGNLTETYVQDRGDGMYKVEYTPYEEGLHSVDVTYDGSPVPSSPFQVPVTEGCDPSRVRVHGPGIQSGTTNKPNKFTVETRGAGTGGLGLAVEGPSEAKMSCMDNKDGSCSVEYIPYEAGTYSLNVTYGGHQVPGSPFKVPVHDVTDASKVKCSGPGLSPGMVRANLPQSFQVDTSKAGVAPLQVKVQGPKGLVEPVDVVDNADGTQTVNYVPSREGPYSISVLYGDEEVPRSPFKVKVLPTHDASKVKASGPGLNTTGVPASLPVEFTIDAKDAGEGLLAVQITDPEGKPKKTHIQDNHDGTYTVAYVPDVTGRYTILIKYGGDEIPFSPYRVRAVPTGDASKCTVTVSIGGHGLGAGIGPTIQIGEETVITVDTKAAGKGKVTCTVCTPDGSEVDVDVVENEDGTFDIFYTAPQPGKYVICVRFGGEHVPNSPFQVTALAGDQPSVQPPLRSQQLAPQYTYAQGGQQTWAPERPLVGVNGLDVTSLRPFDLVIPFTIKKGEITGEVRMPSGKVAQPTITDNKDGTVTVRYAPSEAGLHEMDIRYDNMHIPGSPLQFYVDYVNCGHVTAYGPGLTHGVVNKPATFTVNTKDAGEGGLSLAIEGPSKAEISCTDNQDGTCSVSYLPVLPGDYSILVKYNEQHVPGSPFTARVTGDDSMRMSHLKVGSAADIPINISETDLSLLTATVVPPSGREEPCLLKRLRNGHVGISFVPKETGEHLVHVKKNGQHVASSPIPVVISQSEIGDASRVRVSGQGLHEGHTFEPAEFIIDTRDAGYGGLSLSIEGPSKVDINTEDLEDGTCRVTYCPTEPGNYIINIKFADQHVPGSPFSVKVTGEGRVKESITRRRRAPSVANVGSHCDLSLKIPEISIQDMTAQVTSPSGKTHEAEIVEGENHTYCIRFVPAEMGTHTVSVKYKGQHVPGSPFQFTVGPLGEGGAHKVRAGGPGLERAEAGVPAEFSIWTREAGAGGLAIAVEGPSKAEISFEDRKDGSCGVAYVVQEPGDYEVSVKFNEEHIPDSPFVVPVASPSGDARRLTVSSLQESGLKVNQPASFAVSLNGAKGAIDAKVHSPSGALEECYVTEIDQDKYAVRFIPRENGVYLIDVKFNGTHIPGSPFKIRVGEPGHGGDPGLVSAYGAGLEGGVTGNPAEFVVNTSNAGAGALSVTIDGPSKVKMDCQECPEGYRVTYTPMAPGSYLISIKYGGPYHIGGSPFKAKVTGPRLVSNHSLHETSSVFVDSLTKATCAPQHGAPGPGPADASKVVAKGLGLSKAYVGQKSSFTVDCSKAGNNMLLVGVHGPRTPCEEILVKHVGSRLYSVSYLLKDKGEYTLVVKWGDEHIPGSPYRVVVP

B1: anti-filamin-A antibody B411 (antibody, human IgG1, kappa, V domains shown)
VH: EVKLVESGGGLVQPGGSLKLSCAASGFTFSSYTMSWVRQTPEKRLEWVAYISNGGGSTYYPDTVKGRFTISRDNAKNTLYLQMSSLKSEDTAMYYCASDGIIRPFAYWGQGTLVTVSA
VL: DIVMTQSHKFMSTSVGDRVSITCKASQDVSLDVAWYQQKPGQSPKLLIYSASHRYTGVPDRFTGSGSGTDFTFTISGVQAEDLAVYFCQQHYSTPLTFGAGTKLELKR
notes: also called B4111
In the case of B1, the binding result is given as “binds”.

The values above are taken from patent US20220025025A1 (IBEX BIOSCIENCES, published 2022).
